Laboratory results from PMC4997359 (Scientific Reports, 2016).
Values belong to the molecule of their own block, whether it stands above or below them.

How the values were obtained:
[1] = molecular target: H2A–H2BT112C-Alexa 488 dimer (UniProt P06897); test: other fluorescence titration; labelled H2A–H2BT112C-Alexa 488 (0.1–10 nM) titrated with increasing NP (pentamer); 150 mM NaCl, 20 mM Tris-HCl, pH 7.6, 1 mM DTT, 0.1 mg/ml BSA; apparent Kd; ligand-depleted model with 5 sites per NP pentamer
[2] = molecular target: H3C110E-H4T71C-Alexa 488 (predominantly dimeric H3-H4 variant); test: other fluorescence titration; labelled H3-H4 (H3C110E-H4T71C or H3C110A-H4T71C, Alexa 488; 0.1–10 nM) titrated with increasing NP (pentamer); 150 mM NaCl, 20 mM Tris-HCl, pH 7.6, 1 mM DTT, 0.1 mg/ml BSA; apparent Kd; ligand-depleted model with 2 sites per NP pentamer
[3] = molecular target: egg nucleoplasmin (eNP), native NP from Xenopus laevis eggs (X. laevis) (UniProt P05221); test: other fluorescence titration; competition: preformed NP/H2A–H2BT112C-Alexa 488 complexes (eNP 0.1 nM/histone 1 nM; rNP 0.5 nM/histone 5 nM) titrated with unlabelled H1 or H5; EC50 converted by the Cheng-Prusoff equation; apparent Kd
[4] = molecular target: full-length recombinant nucleoplasmin (rNP) (X. laevis) (UniProt P05221); test: as above
[5] = molecular target: cross-linked H3C110AK115C-H4T71C-Alexa 488 tetramer; test: other fluorescence titration; saturation stoichiometry: cross-linked H3C110AK115C-H4T71C-Alexa 488 at 10 times the apparent Kd titrated with NP; 150 mM NaCl, 20 mM Tris-HCl, pH 7.6, 1 mM DTT, 1% glycerol, 0.05% Tween 20
[6] = molecular target: cross-linked H3C110AK115C-H4T71C-Alexa 488 tetramer; test: other fluorescence titration; cross-linked H3C110AK115C-H4T71C-Alexa 488 titrated with increasing NP (pentamer); 150 mM NaCl, 20 mM Tris-HCl, pH 7.6, 1 mM DTT, 1% glycerol, 0.05% Tween 20; apparent Kd; ligand-depleted model, 1/1 NP pentamer/histone tetramer
[7] = molecular target: H2A–H2BT112C-Alexa 488 dimer (UniProt P06897); test: other fluorescence titration; saturation stoichiometry: labelled histone dimers at 10 times the apparent Kd titrated with NP; molar ratio at the intersection of the linear phase with the plateau; 150 mM NaCl, 20 mM Tris-HCl, pH 7.6, 1 mM DTT, 0.1 mg/ml BSA
[8] = molecular target: H3C110E-H4T71C-Alexa 488 (predominantly dimeric H3-H4 variant); test: as above
[9] = molecular target: T1, egg nucleoplasmin (eNP), native NP from Xenopus laevis eggs (X. laevis, UniProt P05221 1-200, natural post-translational modifications, in particular phosphorylation (hyperphosphorylated); sites not printed in the text (circles in Figure 1A)); test: other fluorescence titration; competition: preformed NP/H2A–H2BT112C-Alexa 488 complexes (eNP 0.1 nM/histone 1 nM; rNP 0.5 nM/histone 5 nM) titrated with unlabelled H1 or H5; EC50 converted by the Cheng-Prusoff equation; apparent Kd; details: both partners purified
T1 construct: nucleoplasmin (NPM2), Xenopus laevis, 22 kDa subunit, residues 1-200 (core 1-120, tail 121-200); Homopentamer; also called NPM2; natural NP

[10] = molecular target: T2, full-length recombinant nucleoplasmin (rNP) (X. laevis, UniProt P05221 1-200); test: as above; details: both partners purified
T2 construct: nucleoplasmin (NPM2), Xenopus laevis, full length recombinant, non-phosphorylated; also called recombinant NP

Molecule: rNPΔ120–200, recombinant nucleoplasmin core lacking the whole C-terminal domain (from UniProt P05221 1-119) (domain or fragment)
Kd [1]: 11 nM
Kd [2]: 16000 nM

Molecule: linker histone H1 from chicken erythrocyte chromatin (from UniProt P09987 1-218) (natural protein)
Kd [3]: 0.07 nM
Kd [4]: 1.7 nM

Molecule: full-length recombinant nucleoplasmin (rNP) (from UniProt P05221 1-200) (natural protein)
stoichiometry N (cross-linked tetramer per NP pentamer) [5]: 1
Kd [1]: 7 nM
Kd [6]: 2.1 nM
stoichiometry N (H2A–H2B dimers per NP pentamer) [7]: 2
Kd [2]: 3 nM

B1: linker histone H5 from chicken erythrocyte chromatin (natural protein, UniProt P02259 1-190, looked up)
chain: MTESLVLSPAPAKPKRVKASRRSASHPTYSEMIAAAIRAEKSRGGSSRQSIQKYIKSHYKVGHNADLQIKLSIRRLLAAGVLKQTKGVGASGSFRLAKSDKAKRSPGKKKKAVRRSTSPKKAARPRKARSPAKKPKATARKARKKSRASPKKAKKPKTVKAKSRKASKAKKVKRSKPRAKSGARKSPKKK
notes: histone H5, chicken erythrocytes; Unlabelled
Kd [9]: 0.03 ± 0.006 nM
Kd [10]: 0.7 ± 0.2 nM

Continued by falling Kd [1], values first:

Kd [1]: 0.12 nM
stoichiometry N (H2A–H2B dimers per NP pentamer) [7]: 5
Kd [2]: 0.05 nM
Molecule: rNPΔ150–200, recombinant nucleoplasmin lacking the last 50 residues (from UniProt P05221 1-149) (domain or fragment)

Kd [1]: 0.11 nM
stoichiometry N (H2A–H2B dimers per NP pentamer) [7]: 3
Kd [2]: 0.09 nM
Molecule: oocyte nucleoplasmin (oNP), NP isolated from X. laevis oocytes (from UniProt P05221 1-200) (natural protein)

stoichiometry N (cross-linked tetramer per NP pentamer) [5]: 1
Kd [1]: 0.06 nM
Kd [6]: 1.1 nM
stoichiometry N (H2A–H2B dimers per NP pentamer) [7]: 5
stoichiometry N (H3-H4 dimers per NP pentamer) [8]: 2
Kd [2]: 0.05 nM
Molecule: egg nucleoplasmin (eNP), native NP from Xenopus laevis eggs (from UniProt P05221 1-200) (natural protein)
